B1: dehydrodolichyl diphosphate synthase (DHDDS), residues 1-333 (enzyme)
chain: MSWIKEGELSLWERFCANIIKAGPMPKHIAFIMDGNRRYAKKCQVERQEGHSQGFNKLAETLRWCLNLGILEVTVYAFSIENFKRSKSEVDGLMDLARQKFSRLMEEKEKLQKHGVCIRVLGDLHLLPLDLQELIAQAVQATKNYNKCFLNVCFAYTSRHEISNAVREMAWGVEQGLLDPSDISESLLDKCLYTNRSPHPDILIRTSGEVRLSDFLLWQTSHSCLVFQPVLWPEYTFWNLFEAILQFQMNHSVLQKARDMYAEERKRQQLERDQATVTEQLLREGLQASGDAQLRRTRLHKLSARREERVQGFLQALELKRADWLARLGTASA
B2: Nogo B-receptor (NgBR) pseudo cis-prenyltransferase domain, residues 73-293, lacking residues 167-175 (domain or fragment)
chain: RGGSCLAAAHHRMRWRADGRSLEKLPVHMGLVITEVEQEPSFSDIASLVVWCMAVGISYISVYDHQGIFKRNNSRLMDEILKQQQELLGLDCSKDKDDQVLNCHLAVKVLSPEDGKADIVRAAQDFCQLVAQKQKRPTDLDVDTLASLLSSNGCPDPDLVLKFGPVDSTLGFLPWHIRLTEIVSLPSHLNISYEDFFSALRQYAACEQRLGK

The series “crystal structure” concerns the molecule itself. The series can be described thus: crystal structure.
In series [1] the target is B1. Description: crystal structure.

For the molecule B1, the binding result in “crystal structure” is listed as “binds”. B2: the binding result in series [1] was “binds”.

The values are drawn from paper doi:10.1101/2021.10.21.465316 (bioRxiv, 2021).
